Measurements published in patent US20170306346.

Key:
His-AtUBC2, P42745 = biological target: T1, His-AtUBC2, P42745
T1 chain: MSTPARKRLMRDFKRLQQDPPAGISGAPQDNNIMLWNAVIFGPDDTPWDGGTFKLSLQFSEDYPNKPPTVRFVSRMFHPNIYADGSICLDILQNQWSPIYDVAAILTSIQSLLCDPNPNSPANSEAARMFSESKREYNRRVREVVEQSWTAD

His-AtUBC36, Q9FZ48 = biological target: T2, His-AtUBC36, Q9FZ48
T2 chain: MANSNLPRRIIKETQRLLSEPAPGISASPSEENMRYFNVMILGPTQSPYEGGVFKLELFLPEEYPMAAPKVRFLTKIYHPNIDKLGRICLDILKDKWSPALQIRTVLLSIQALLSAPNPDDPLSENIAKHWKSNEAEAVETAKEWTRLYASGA

His-AtUBC31 = biological target: T3, His-AtUBC31
T3 sequence (Q9C8X7 1-154, looked up): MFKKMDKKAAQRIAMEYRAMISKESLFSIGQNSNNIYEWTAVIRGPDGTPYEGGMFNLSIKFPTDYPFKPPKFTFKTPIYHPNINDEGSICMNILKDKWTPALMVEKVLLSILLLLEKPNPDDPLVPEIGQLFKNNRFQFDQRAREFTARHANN

GST-MYC2-HA, Q39204, sequence (Q39204 whole entry): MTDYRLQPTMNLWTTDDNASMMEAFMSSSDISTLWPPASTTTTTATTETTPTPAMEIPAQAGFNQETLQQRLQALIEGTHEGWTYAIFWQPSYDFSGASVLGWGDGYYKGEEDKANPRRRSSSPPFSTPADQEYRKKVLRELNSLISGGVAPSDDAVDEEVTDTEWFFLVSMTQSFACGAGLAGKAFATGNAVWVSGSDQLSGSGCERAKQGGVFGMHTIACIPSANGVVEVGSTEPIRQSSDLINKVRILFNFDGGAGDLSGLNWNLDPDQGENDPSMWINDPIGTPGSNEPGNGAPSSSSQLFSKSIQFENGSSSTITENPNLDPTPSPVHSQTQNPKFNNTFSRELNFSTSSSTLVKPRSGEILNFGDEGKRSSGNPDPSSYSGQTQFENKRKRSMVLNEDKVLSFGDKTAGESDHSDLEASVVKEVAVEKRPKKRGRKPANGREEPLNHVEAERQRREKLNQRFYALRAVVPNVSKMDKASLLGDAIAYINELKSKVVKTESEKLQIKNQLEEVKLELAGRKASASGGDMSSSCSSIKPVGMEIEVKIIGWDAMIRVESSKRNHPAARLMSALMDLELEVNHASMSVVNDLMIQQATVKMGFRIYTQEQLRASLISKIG
myc-MYC2, Q39204, sequence (Q39204 whole entry): as above
His-AtUBC8, P35131, sequence (P35131 whole entry): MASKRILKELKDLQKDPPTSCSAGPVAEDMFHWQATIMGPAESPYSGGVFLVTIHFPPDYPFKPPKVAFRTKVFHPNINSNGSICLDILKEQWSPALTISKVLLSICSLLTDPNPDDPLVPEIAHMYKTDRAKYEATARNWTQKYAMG

B1: HA-PUB10 (protein)
chain: MAGGAITPDSLIGLIAEINEIPGNFGLFKKDCSDLARRVGLLTHLIEEIRDSSPPSESDASSSLNSHECDWWSDLVVGLQAAKRLLSSATSFQARESSDGAAKRISFQFQCVTWKLEKALGDLTYDRYDISDEVREQVELARLQLRRAMQRYGSLNSKKFSSGLSEPMEKDASSNRKVIEKLESIPETVHSLSDEKKFESPPPWKSSSVSLAFFLSKDGDDERLEKAVTENSDDSQKSDNLTIPEDFLCPISLELMKDPAIVSTGQTYERSFIQRWIDCGNLSCPKTQQKLENFTLTPNYVLRSLISQWCTKHNIEQPGGYMNGRTKNSDGSFRDLSGDMSAIRALVCKLSSQSIEDRRTAVSEIRSLSKRSTDNRILIAEAGAIPVLVKLLTSDGDTETQENAVTCILNLSIYEHNKELIMLAGAVTSIVLVLRAGSMEARENAAATLFSLSLADENKIIIGASGAIMALVDLLQYGSVRGKKDAATALFNLCIYQGNKGRAVRAGIVKPLVKMLTDSSSERMADEALTILSVLASNQVAKTAILRANAIPPLIDCLQKDQPRNRENAAAILLCLCKRDTEKLISIGRLGAVVPLMELSRDGTERAKRKANSLLELLRKSSRKLGSL
B1 was tested, and the “myc-MYC2 protein level in double transgenic Arabidopsis seedlings (Western blot)” value (myc-MYC2, Q39204) was “induced expression of HA-PUB10 clearly resulted in a decrease in myc-MYC2 level”.

B2: HA-PUB10 (C249A) (protein)
chain: MAGGAITPDSLIGLIAEINEIPGNFGLFKKDCSDLARRVGLLTHLIEEIRDSSPPSESDASSSLNSHECDWWSDLVVGLQAAKRLLSSATSFQARESSDGAAKRISFQFQCVTWKLEKALGDLTYDRYDISDEVREQVELARLQLRRAMQRYGSLNSKKFSSGLSEPMEKDASSNRKVIEKLESIPETVHSLSDEKKFESPPPWKSSSVSLAFFLSKDGDDERLEKAVTENSDDSQKSDNLTIPEDFLAPISLELMKDPAIVSTGQTYERSFIQRWIDCGNLSCPKTQQKLENFTLTPNYVLRSLISQWCTKHNIEQPGGYMNGRTKNSDGSFRDLSGDMSAIRALVCKLSSQSIEDRRTAVSEIRSLSKRSTDNRILIAEAGAIPVLVKLLTSDGDTETQENAVTCILNLSIYEHNKELIMLAGAVTSIVLVLRAGSMEARENAAATLFSLSLADENKIIIGASGAIMALVDLLQYGSVRGKKDAATALFNLCIYQGNKGRAVRAGIVKPLVKMLTDSSSERMADEALTILSVLASNQVAKTAILRANAIPPLIDCLQKDQPRNRENAAAILLCLCKRDTEKLISIGRLGAVVPLMELSRDGTERAKRKANSLLELLRKSSRKLGSL
In the case of B2, the “myc-MYC2 protein level in double transgenic Arabidopsis seedlings (Western blot)” value (myc-MYC2, Q39204) is reported as “induced expression of PUB10 (C249A) mutant protein resulted in an increase of MYC2 level”.

B3: MBP-PUB10 (C249A)-6myc (protein)
chain: MAGGAITPDSLIGLIAEINEIPGNFGLFKKDCSDLARRVGLLTHLIEEIRDSSPPSESDASSSLNSHECDWWSDLVVGLQAAKRLLSSATSFQARESSDGAAKRISFQFQCVTWKLEKALGDLTYDRYDISDEVREQVELARLQLRRAMQRYGSLNSKKFSSGLSEPMEKDASSNRKVIEKLESIPETVHSLSDEKKFESPPPWKSSSVSLAFFLSKDGDDERLEKAVTENSDDSQKSDNLTIPEDFLAPISLELMKDPAIVSTGQTYERSFIQRWIDCGNLSCPKTQQKLENFTLTPNYVLRSLISQWCTKHNIEQPGGYMNGRTKNSDGSFRDLSGDMSAIRALVCKLSSQSIEDRRTAVSEIRSLSKRSTDNRILIAEAGAIPVLVKLLTSDGDTETQENAVTCILNLSIYEHNKELIMLAGAVTSIVLVLRAGSMEARENAAATLFSLSLADENKIIIGASGAIMALVDLLQYGSVRGKKDAATALFNLCIYQGNKGRAVRAGIVKPLVKMLTDSSSERMADEALTILSVLASNQVAKTAILRANAIPPLIDCLQKDQPRNRENAAAILLCLCKRDTEKLISIGRLGAVVPLMELSRDGTERAKRKANSLLELLRKSSRKLGSL
In the case of B3, the “in vitro ubiquitination of MYC2 (E1, AtUBC8 as E2, His-ubiquitin; Western blot)” value (GST-MYC2-HA, Q39204) is reported as “The ubiquitination activity was greatly reduced when cysteine 249 was mutated to alanine 249”.

B4: MBP-PUB10-6myc (protein)
chain: MAGGAITPDSLIGLIAEINEIPGNFGLFKKDCSDLARRVGLLTHLIEEIRDSSPPSESDASSSLNSHECDWWSDLVVGLQAAKRLLSSATSFQARESSDGAAKRISFQFQCVTWKLEKALGDLTYDRYDISDEVREQVELARLQLRRAMQRYGSLNSKKFSSGLSEPMEKDASSNRKVIEKLESIPETVHSLSDEKKFESPPPWKSSSVSLAFFLSKDGDDERLEKAVTENSDDSQKSDNLTIPEDFLCPISLELMKDPAIVSTGQTYERSFIQRWIDCGNLSCPKTQQKLENFTLTPNYVLRSLISQWCTKHNIEQPGGYMNGRTKNSDGSFRDLSGDMSAIRALVCKLSSQSIEDRRTAVSEIRSLSKRSTDNRILIAEAGAIPVLVKLLTSDGDTETQENAVTCILNLSIYEHNKELIMLAGAVTSIVLVLRAGSMEARENAAATLFSLSLADENKIIIGASGAIMALVDLLQYGSVRGKKDAATALFNLCIYQGNKGRAVRAGIVKPLVKMLTDSSSERMADEALTILSVLASNQVAKTAILRANAIPPLIDCLQKDQPRNRENAAAILLCLCKRDTEKLISIGRLGAVVPLMELSRDGTERAKRKANSLLELLRKSSRKLGSL
For B4, the “in vitro auto-ubiquitination of PUB10 with the UBC as E2” value (“in vitro auto-ubiquitination of PUB10” below) (His-AtUBC2, P42745) was “Each of these 4 UBCs was capable of supporting auto-ubiquitination of PUB10 and PUB11 in vitro although with varying degrees of activity”, the “in vitro ubiquitination of MYC2 (E1, AtUBC8 as E2, His-ubiquitin; Western blot)” value (GST-MYC2-HA, Q39204) was “MYC2 was indeed poly-ubiquitinated by PUB10 in vitro” and the “in vitro auto-ubiquitination of PUB10” value (His-AtUBC8, P35131) was “Each of these 4 UBCs was capable of supporting auto-ubiquitination of PUB10 and PUB11 in vitro although with varying degrees of activity ... The highest activity was obtained when UBC8 served as the ubiquitin conjugating enzyme”. The “in vitro auto-ubiquitination of PUB10” value (His-AtUBC36, Q9FZ48) was “Each of these 4 UBCs was capable of supporting auto-ubiquitination of PUB10 and PUB11 in vitro although with varying degrees of activity” and the “in vitro auto-ubiquitination of PUB10” value (His-AtUBC31) was “Each of these 4 UBCs was capable of supporting auto-ubiquitination of PUB10 and PUB11 in vitro although with varying degrees of activity”.

B5: MBP-PUB11-myc (protein)
chain: MAGGIVSPASLLDLIADIVEIPLNTGMFKKDCADLTRRVCLLTHLLEEIRDSTPIDSAASSSSENDWWSDLVVGLQAAKRLLSTARFQARDSSDGAAKRISFQFQCVTWKLEKALSNLPYDLYDISDEVGEQVELARSQLRRAMQRYGSLNSNKFSSALSEPMERDGFSNVIKIKAEEKLESVSETLHFGEEEEKQSSPPLRRSSSISLAYYLSKDADTDRLDKMVNKNTDESKKSDKLTIPVDFLCPVSLELMKDPVIVATGQTYERAYIQRWIDCGNLTCPKTQQKLENFTLTPNYVLRSLISRWCAEHNIEQPAGYINGRTKNSGDMSVIRALVQRLSSRSTEDRRNAVSEIRSLSKRSTDNRILIAEAGAIPVLVNLLTSEDVATQENAITCVLNLSIYENNKELIMFAGAVTSIVQVLRAGTMEARENAAATLFSLSLADENKIIIGGSGAIPALVDLLENGTPRGKKDAATALFNLCIYHGNKGRAVRAGIVTALVKMLSDSTRHRMVDEALTILSVLANNQDAKSAIVKANTLPALIGILQTDQTRNRENAAAILLSLCKRDTEKLITIGRLGAVVPLMDLSKNGTERGKRKAISLLELLRKACQ
B5 was tested, and the “in vitro auto-ubiquitination of PUB11 with the UBC as E2” value (shortened to “in vitro auto-ubiquitination of PUB11”) (His-AtUBC2, P42745) was “Each of these 4 UBCs was capable of supporting auto-ubiquitination of PUB10 and PUB11 in vitro although with varying degrees of activity”, the “in vitro ubiquitination of MYC2 (E1, E2, Ub; Western blot)” value (GST-MYC2-HA, Q39204) was “MYC2 is a substrate of PUB11 E3 ligase” and the “in vitro auto-ubiquitination of PUB11” value (His-AtUBC8, P35131) was “Each of these 4 UBCs was capable of supporting auto-ubiquitination of PUB10 and PUB11 in vitro although with varying degrees of activity ... The highest activity was obtained when UBC8 served as the ubiquitin conjugating enzyme”. For the same protein, the “in vitro auto-ubiquitination of PUB11” value (His-AtUBC36, Q9FZ48) was “Each of these 4 UBCs was capable of supporting auto-ubiquitination of PUB10 and PUB11 in vitro although with varying degrees of activity” and the “in vitro auto-ubiquitination of PUB11” value (His-AtUBC31) was “Each of these 4 UBCs was capable of supporting auto-ubiquitination of PUB10 and PUB11 in vitro although with varying degrees of activity”.
